Source: article PMC12808100, “The non-catalytic DNA polymerase ε subunit is an NPF motif recognition protein” (Nature Communications, 2025)
Blank lines part the entries; values can stand above or below the binder they belong to.

Legend:
[1] = molecular target: triple NPF motif peptide made from the DONSON sequence (human); assay: native holdup (nHU) titration with western blot; biotinylated peptide bait on streptavidin resin, bait-saturated and control (biotin) resin mixed at various proportions; total Jurkat extract as analyte; 4 °C, 2 h; endogenous POLE and EPS15 left in the supernatant quantified by western blot; apparent dissociation constants
[2] = molecular target: His6-AviTag-MBP-TEV-POLE2, P56282; assay: nHU titration, dot blot; settings: chain shown with the change
Sequence of His6-AviTag-MBP-TEV-POLE2, P56282 (P56282 whole entry): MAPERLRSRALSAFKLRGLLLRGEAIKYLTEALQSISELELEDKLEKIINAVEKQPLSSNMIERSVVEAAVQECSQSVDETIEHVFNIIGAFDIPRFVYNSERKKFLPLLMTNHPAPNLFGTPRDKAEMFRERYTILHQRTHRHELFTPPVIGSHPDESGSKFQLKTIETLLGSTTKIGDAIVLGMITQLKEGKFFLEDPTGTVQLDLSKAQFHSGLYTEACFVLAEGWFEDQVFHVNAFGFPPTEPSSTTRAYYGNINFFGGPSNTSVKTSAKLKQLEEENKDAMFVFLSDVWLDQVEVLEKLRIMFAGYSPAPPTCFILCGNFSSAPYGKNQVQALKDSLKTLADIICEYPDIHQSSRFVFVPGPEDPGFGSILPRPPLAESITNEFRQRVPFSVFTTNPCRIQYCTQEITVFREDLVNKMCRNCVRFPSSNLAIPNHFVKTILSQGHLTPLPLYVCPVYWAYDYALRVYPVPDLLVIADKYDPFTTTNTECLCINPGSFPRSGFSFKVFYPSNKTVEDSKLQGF

- Kd [1]: 0.8 µM
B1: EPS15 (natural protein)
chain: MAAAAQLSLTQLSSGNPVYEKYYRQVDTGNTGRVLASDAAAFLKKSGLPDLILGKIWDLADTDGKGILNKQEFFVALRLVACAQNGLEVSLSSLNLAVPPPRFHDTSSPLLISGTSAAELPWAVKPEDKAKYDAIFDSLSPVNGFLSGDKVKPVLLNSKLPVDILGRVWELSDIDHDGMLDRDEFAVAMFLVYCALEKEPVPMSLPPALVPPSKRKTWVVSPAEKAKYDEIFLKTDKDMDGFVSGLEVREIFLKTGLPSTLLAHIWSLCDTKDCGKLSKDQFALAFHLISQKLIKGIDPPHVLTPEMIPPSDRASLQKNIIGSSPVADFSAIKELDTLNNEIVDLQREKNNVEQDLKEKEDTIKQRTSEVQDLQDEVQRENTNLQKLQAQKQQVQELLDELDEQKAQLEEQLKEVRKKCAEEAQLISSLKAELTSQESQISTYEEELAKAREELSRLQQETAELEESVESGKAQLEPLQQHLQDSQQEISSMQMKLMEMKDLENHNSQLNWCSSPHSILVNGATDYCSLSTSSSETANLNEHVEGQSNLESEPIHQESPARSSPELLPSGVTDENEVTTAVTEKVCSELDNNRHSKEEDPFNVDSSSLTGPVADTNLDFFQSDPFVGSDPFKDDPFGKIDPFGGDPFKGSDPFASDCFFRQSTDPFATSSTDPFSAANNSSITSVETLKHNDPFAPGGTVVAASDSATDPFASVFGNESFGGGFADFSTLSKVNNEDPFRSATSSSVSNVVITKNVFEETSVKSEDEPPALPPKIGTPTRPCPLPPGKRSINKLDSPDPFKLNDPFQPFPGNDSPKEKDPEIFCDPFTSATTTTNKEADPSNFANFSAYPSEEDMIEWAKRESEREEEQRLARLNQQEQEDLELAIALSKSEISEA

- Kd [2]: 32 µM
B2: HA-WDHD1, full length, intact NPF motif, O75717 NPF to KAF (protein)
chain: MPATRKPMRYGHTEGHTEVCFDDSGSFIVTCGSDGDVRIWEDLDDDDPKFINVGEKAYSCALKSGKLVTAVSNNTIQVHTFPEGVPDGILTRFTTNANHVVFNGDGTKIAAGSSDFLVKIVDVMDSSQQKTFRGHDAPVLSLSFDPKDIFLASASCDGSVRVWQISDQTCAISWPLLQKCNDVINAKSICRLAWQPKSGKLLAIPVEKSVKLYRRESWSHQFDLSDNFISQTLNIVTWSPCGQYLAAGSINGLIIVWNVETKDCMERVKHEKGYAICGLAWHPTCGRISYTDAEGNLGLLENVCDPSGKTSSSKVSSRVEKDYNDLFDGDDMSNAGDFLNDNAVEIPSFSKGIINDDEDDEDLMMASGRPRQRSHILEDDENSVDISMLKTGSSLLKEEEEDGQEGSIHNLPLVTSQRPFYDGPMPTPRQKPFQSGSTPLHLTHRFMVWNSIGIIRCYNDEQDNAIDVEFHDTSIHHATHLSNTLNYTIADLSHEAILLACESTDELASKLHCLHFSSWDSSKEWIIDLPQNEDIEAICLGQGWAAAATSALLLRLFTIGGVQKEVFSLAGPVVSMAGHGEQLFIVYHRGTGFDGDQCLGVQLLELGKKKKQILHGDPLPLTRKSYLAWIGFSAEGTPCYVDSEGIVRMLNRGLGNTWTPICNTREHCKGKSDHYWVVGIHENPQQLRCIPCKGSRFPPTLPRPAVAILSFKLPYCQIATEKGQMEEQFWRSVIFHNHLDYLAKNGYEYEESTKNQATKEQQELLMKMLALSCKLEREFRCVELADLMTQNAVNLAIKYASRSRKLILAQKLSELAVEKAAELTATQVEEEEEEEDFRKKLNAGYSNTATEWSQPRFRNQVEEDAEDSGEADDEEKPEIHKPGQNSFSKSTNSSDVSAKSGAVTFSSQGRVKAFKVSASSKEPAMSMNSARSTNILDNMGKSSKKSTALSRTTNNEKSPIIKPLIPKPKPKQASAASYFQKRNSQTNKTEEVKEENLKNVLSETPAICPPQNTENQRPKTGFQMWLEENRSNILSDNPDFSDEADIIKEGMIRFRVLSTEERKVWANKAKGETASEGTEAKKRKRVVDESDETENQEEKAKENLNLSKKQKPLDFSTNQKLSAFAFKQE

- Kd [2]: 23 µM
B3: HA-ERCC6L, full length, intact NPF motif, Q2NKX8 NPF to KAF (protein)
chain: MEASRRFPEAEALSPEQAAHYLRYVKEAKEATKNGDLEEAFKLFNLAKDIFPNEKVLSRIQKIQEALEELAEQGDDEFTDVCNSGLLLYRELHNQLFEHQKEGIAFLYSLYRDGRKGGILADDMGLGKTVQIIAFLSGMFDASLVNHVLLIMPTNLINTWVKEFIKWTPGMRVKTFHGPSKDERTRNLNRIQQRNGVIITTYQMLINNWQQLSSFRGQEFVWDYVILDEAHKIKTSSTKSAICARAIPASNRLLLTGTPIQNNLQELWSLFDFACQGSLLGTLKTFKMEYENPITRAREKDATPGEKALGFKISENLMAIIKPYFLRRTKEDVQKKKSSNPEARLNEKNPDVDAICEMPSLSRKNDLIIWIRLVPLQEEIYRKFVSLDHIKELLMETRSPLAELGVLKKLCDHPRLLSARACCLLNLGTFSAQDGNEGEDSPDVDHIDQVTDDTLMEESGKMIFLMDLLKRLRDEGHQTLVFSQSRQILNIIERLLKNRHFKTLRIDGTVTHLLEREKRINLFQQNKDYSVFLLTTQVGGVGLTLTAATRVVIFDPSWNPATDAQAVDRVYRIGQKENVVVYRLITCGTVEEKIYRRQVFKDSLIRQTTGEKKNPFRYFSKQELRELFTIEDLQNSVTQLQLQSLHAAQRKSDIKLDEHIAYLQSLGIAGISDHDLMYTCDLSVKEELDVVEESHYIQQRVQKAQFLVEFESQNKEFLMEQQRTRNEGAWLREPVFPSSTKKKCPKLNKPQPQPSPLLSTHHTQEEDISSKMASVVIDDLPKEGEKQDLSSIKVNVTTLQDGKGTGSADSIATLPKGFGSVEELCTNSSLGMEKSFATKNEAVQKETLQEGPKQEALQEDPLESFNYVLSKSTKADIGPNLDQLKDDEILRHCNPWPIISITNESQNAESNVSIIEIADDLSASHSALQDAQASEAKLEEEPSASSPQYACDFNLFLEDSADNRQNFSSQSLEHVEKENSLCGSAPNSRAGFVHSKTCLSWEFSEKDDEPEEVVVKAKIRSKARRIVSDGEDEDDSFKDTSSIKAFNTSLFQFSSVKQFDASTPKNDISPPGRFFSSQIPSSVNKSMNSRRSLASRRSLINMVLDHVEDMEERLDDSSEAKGPEDYPEEGVEESSGEASKYTEEDPSGETLSSENKSSWLMTSKPSALAQETSLGAPEPLSGEQLVGSPQDKAAEATNDYETLVKRGKELKECGKIQEALNCLVKALDIKSADPEVMLLTLSLYKQLNNN

- Kd [2]: 1.1 µM
B4: HA-TTF2, full length, intact NPF motifs, Q9UNY4 NPF to KAF (protein)
chain: MEEVRCPEHGTFCFLKTGVRDGPNKGKSFYVCRADTCSFVRATDIPVSHCLLHEDFVVELQGLLLPQDKKEYRLFFRCIRSKAEGKRWCGSIPWQDPDSKEHSVSNKSQHASETFHHSSNWLRKAFKVLDKNQEPALWKQLIKGEGEEKKADKKQREKGDQLFDQKKEQKPEMMEKDLSSGLVPKKKQSVVQEKKQEEGAEIQCEAETGGTHKRDFSEIKSQQCQGNELTRPSASSQEKSSGKSQDVQRESEPLREKVTQLLPQNVHSHNSISKPQKGGPLNKEYTNWEAKETKAKDGPSIQATQKSLPQGHFQERPETHSVPAPGGPAAQAAPAAPGLSLGEGREAATSSDDEEEDDVVFVSSKPGSPLLFDSTLDLETKENLQFPDRSVQRKVSPASGVSKKVEPSDPVARRVYLTTQLKQKKSTLASVNIQALPDKGQKLIKQIQELEEVLSGLTLSPEQGTNEKSNSQVPQQSHFTKTTTGPPHLVPPQPLPRRGTQPVGSLELKSACQVTAGGSSQCYRGHTNQDHVHAVWKITSEAIGQLHRSLESCPGETVVAEDPAGLKVPLLLHQKQALAWLLWRESQKPQGGILADDMGLGKTLTMIALILTQKNQEKKEEKEKSTALTWLSKDDSCDFTSHGTLIICPASLIHHWKNEVEKRVNSNKLRVYLYHGPNRDSRARVLSTYDIVITTYSLVAKEIPTNKQEAEIPGANLNVEGTSTPLLRIAWARIILDEAHNVKNPRVQTSIAVCKLQACARWAVTGTPIQNNLLDMYSLLKFLRCSPFDEFNLWRSQVDNGSKKGGERLSILTKSLLLRRTKDQLDSTGRPLVILPQRKFQLHHLKLSEDEETVYNVFFARSRSALQSYLKRHESRGNQSGRSPNNPFSRVALEFGSEEPRHSEAADSPRSSTVHILSQLLRLRQCCCHLSLLKSALDPMELKGEGLVLSLEEQLSALTLSELRDSEPSSTVSLNGTFFKMELFEGMRESTKISSLLAELEAIQRNSASQKSVIVSQWTNMLKVVALHLKKHGLTYATIDGSVNPKQRMDLVEAFNHSRGPQVMLISLLAGGVGLNLTGGNHLFLLDMHWNPSLEDQACDRIYRVGQQKDVVIHRFVCEGTVEEKILQLQEKKKDLAKQVLSGSGESVTKLTLADLRVLFGI
